What was measured:
[1] = target: phage expressed hFn14 mutant D51A (human, UniProt Q9NP84 28-77); test: phage ELISA (Method 2): antibody coated on the plate, 10-fold dilutions of phage displaying hFn14 D51A; biotin anti-M13 antibody, streptavidin-HRP, TMB, OD 450 nm; x axis = dilution of phage
From the text: (§1) ELISAs showing the reactivity of mutant hFn14 phage constructs with the anti-Fn14 monoclonal antibodies CRCBT-06-001, CRCBT-06-002, CRCBT-06-004 compared to ITEM-1 and ITEM-4. Binding was detected using Biotin-conjugated anti-M13-phage monoclonal antibody followed by HRP-conjugated Streptavidin and TMB substrate. Optical density at 450 nm was quantified using a Spectramax spectrophotometer. Error bars for each dilution represent the standard deviation of duplicate assays. FIG. 28A L46A, FIG. 28B D51A and FIG. 28C D62A. In all cases error bars represent the standard deviation. X axis=dilution of phage. Methods according to Epitope mapping using phage expressed Fn14—Method 2.
The wells of Maxisorp immunoplates (Nunc) were coated overnight at 4° C. with the target monoclonal antibodies or recombinant Tweak-Fc at a concentration of 1.5 μg/ml in PBS. mAb 5G8 was used as a negative control for ELISA plates coated with tested antibodies. […] 10-fold serial dilutions of phage were made using PBS solution and phage dilutions were added to the coated, blocked ELISA plates for 1 hour, shaking at room temperature. […]
Method A: HRP-conjugated anti-M13-phage antibody (GE Healthcare) at a 1/5000 dilution in PBS was then added to the wells of the ELISA plates for 1 hour, shaking at room temperature. […] Optical density at 450 nm was quantified using a Spectramax absorbance spectrophotometer.

[2] = target: phage expressed hFn14 mutant H60A (human, UniProt Q9NP84 28-77); test: phage ELISA (Method 2): antibody coated on the plate, 10-fold dilutions of phage displaying hFn14 H60A; biotin anti-M13 antibody, streptavidin-HRP, TMB, OD 450 nm; x axis = dilution of phage
Method: as §1, with “mutant H60A and H60K” for “mutant”, “ITEM-4. ITEM-2 was assessed on H60K.” for “ITEM-4.”, “assays.” for “assays. FIG. 28A L46A, FIG. 28B D51A and FIG. 28C D62A. In all cases error bars represent the standard deviation.”
(§2) The wells of Maxisorp immunoplates (Nunc) were coated overnight at 4° C. with the target monoclonal antibodies or recombinant Tweak-Fc at a concentration of 1.5 μg/ml in PBS. mAb 5G8 was used as a negative control for ELISA plates coated with tested antibodies. […] 10-fold serial dilutions of phage were made using PBS solution and phage dilutions were added to the coated, blocked ELISA plates for 1 hour, shaking at room temperature. Phage was subsequently removed from the wells and the ELISA plates were washed three times with PBS/0.05% Tween 20.
(§3) Method A: HRP-conjugated anti-M13-phage antibody (GE Healthcare) at a 1/5000 dilution in PBS was then added to the wells of the ELISA plates for 1 hour, shaking at room temperature. […]

[3] = target: phage expressed hFn14 mutant H60K (human, UniProt Q9NP84 28-77); test: phage ELISA (Method 2): antibody coated on the plate, 10-fold dilutions of phage displaying hFn14 H60K; biotin anti-M13 antibody, streptavidin-HRP, TMB, OD 450 nm; x axis = dilution of phage
Method: as §1, with “mutant H60A and H60K” for “mutant”, “ITEM-4. ITEM-2 was assessed on H60K.” for “ITEM-4.”, “assays.” for “assays. FIG. 28A L46A, FIG. 28B D51A and FIG. 28C D62A. In all cases error bars represent the standard deviation.”
as §2, §3

[4] = target: T1, synthetic peptide Sub-domain 2 Cys 3&6 ΔS (human, not fully specified; biotin on the added C-terminal lysine); test: peptide ELISA: biotinylated synthetic peptide on neutravidin plate, antibody titrated (legend: 0.1-0.0001 µg/ml; axis 'Log (c)'), anti-mouse HRP, TMB, OD 450 nm
T1 construct: also called sub-domain 2 cys3&6ΔS mutant
T1 peptide: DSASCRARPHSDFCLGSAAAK

[5] = target: T2, His tagged hFn14 extracellular region mutant R56P (human, UniProt Q9NP84 28-77); test: ELISA with purified His-tagged hFn14 R56P; x axis 'Log (c)' without unit, µg/ml by the legend
T2 construct: also called R56P mutant; not shown: (His)6 tag

Measured: binding result

Chain of phage expressed hFn14 mutant H60A (Q9NP84 28-77 H60A): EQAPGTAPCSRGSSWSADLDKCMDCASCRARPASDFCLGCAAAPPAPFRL
Chain of phage expressed hFn14 mutant D51A (Q9NP84 28-77 D51A): as the sequence (Q9NP84 28-77 H60A) above, with D24A, A33H counted along it
Chain of phage expressed hFn14 mutant H60K (Q9NP84 28-77 H60K): as the sequence (Q9NP84 28-77 H60A) above, with A33K counted along it

B1: CRCBT-06-002 (antibody, IgG1, V domains shown)
VH: EVKLQQSGGGLVQPGGSMKLSCVASGFTFSYYWMNWVRQSPEQGLEWIAEIRLQSNDYPTHYAESVKGRFTISRDDSKNSVYLQMNNLRPEDTGIYYCACRYADYFDHWGQGTTLTVSS
VL: DTVLTQSPASLVVSLGQRATISCRASQSVSTSDYSYIHWYQQKPGQPPKFLIKYASNRDSGVPARFSGSGSGTDFTLNIHPVEEDDTAIYYCQHSWEIPPTFGAGTKLELQR
binds: [1] | [2] | [3] | [4] | [5]

B2: CRCBT-06-001 (antibody, IgG2b, V domains shown)
VH: QVQLQQSGGGLVQPGGSMKLSCIASGFTFSSYWMSWVRQSPEKGLEWVAEIRSKSDNYATHYAESVKGKFTISRDDSKSRFFLQMNNLRAEDTGIYYCSSTYADYFHYWGQGTDLTVSS
VL: DIVMTQTPASLAVSLGQRATISCRASQSVSTSTYSYMHWYQQKPGQPPKLLIKYASSLESGVPARFSGSGSGTDFTLNIHPVEEDDTATYYCQHSWEIPYTFGGGTKLEIKR
binds: [1] | [2] | [3] | [4] | [5]
